Measurements taken from publication doi:10.1101/2023.04.03.535455 (bioRxiv, 2023).

B1: β5 subunit of the bovine 20S proteasome (natural protein)
chain: TTTLAFKFRHGVIVAADSRATAGAYIASQTVKKVIEINPYLLGTMAGGAADCSFWERLLARQCRIYELRNKERISVAAASKLLANMVYQYKGMGLSMGTMICGWDKRGPGLYYVDSEGNRISGATFSVGSGSVYAYGVMDRGYSYDLEVEEAYDLARRAIYQATYRDAYSGGSVSLYHVREDGWIRVSSDNVADLHDKYSGSTH
B2: β2 subunit of the bovine 20S proteasome (natural protein)
chain: TTIAGVVYKDGIVLGADTRATEGMVVADKNCSKIHFISPNIYCCGAGTAADTDMTTQLISSNLELHSLSTGRLPRVVTANRMLKQMLFRYQGYIGAALVLGGVDVTGPHLYSIYPHGSTDKLPYVTMGSGSLAAMAVFEDKFRPDMEEEEAKKLVSEAIAAGIFNDLGSGSNIDLCVISKSKLDFLRPYSVPNKKGTRFGRYRCEKGTNAVLTEKVTTLEIEVLEETVQTMDTS
B3: His-PI31 wild-type (human), Q92530 1-271 (natural protein)
chain: MAGLEVLFASAAPAITCRQDALVCFLHWEVVTHGYFGLGVGDQPGPNDKKSELLPAGWNNNKDLYVLRYEYKDGSRKLLVKAITVESSMILNVLEYGSQQVADLTLNLDDYIDAEHLGDFHRTYKNSEELRSRIVSGIITPIHEQWEKANVSSPHREFPPATAREVDPLRIPPHHPHTSRQPPWCDPLGPFVVGGEDLDPFGPRRGGMIVDPLRSGFPRALIDPSSGLPNRLPPGAVPPGARFDPFGPIGTSPPGPNPDHLPPPGYDDMYL

Legend:
[1] = target: T1, recombinant wild-type human PI31 (Proteasome Inhibitor of 31,000 daltons) (human, UniProt Q92530 1-271); experiment: cryo-EM structure
T1 sequence: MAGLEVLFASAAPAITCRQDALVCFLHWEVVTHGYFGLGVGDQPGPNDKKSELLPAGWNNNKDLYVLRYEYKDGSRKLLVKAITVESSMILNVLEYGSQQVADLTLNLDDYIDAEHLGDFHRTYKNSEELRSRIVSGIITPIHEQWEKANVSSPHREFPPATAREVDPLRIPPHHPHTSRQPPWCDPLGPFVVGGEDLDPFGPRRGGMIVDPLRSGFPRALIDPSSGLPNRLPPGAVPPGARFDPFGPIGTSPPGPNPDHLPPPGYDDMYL

[2] = target: T2, His-PI31 wild-type (human) (human), Q92530; experiment: mass photometry; settings: remark: other sources report otherwise
T2 chain: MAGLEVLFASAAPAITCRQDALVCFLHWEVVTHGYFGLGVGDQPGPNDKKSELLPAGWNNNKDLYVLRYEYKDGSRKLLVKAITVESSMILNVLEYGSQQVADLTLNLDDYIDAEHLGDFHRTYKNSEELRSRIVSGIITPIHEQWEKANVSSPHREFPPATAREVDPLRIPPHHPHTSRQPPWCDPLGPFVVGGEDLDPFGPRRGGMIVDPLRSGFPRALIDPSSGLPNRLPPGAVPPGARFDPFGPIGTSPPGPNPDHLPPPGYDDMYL

| binding result [1] | stoichiometry N [2] | Binder |
| --- | --- | --- |
| binds |  | B1 |
| binds |  | B2 |
|  | 2 | B3 |
